According to US20220281976A1 (Alector, published 2022):

T1: mouse CD33 Fc fusion protein (mouse, UniProt Q63994 18-240, limits assumed)
T1 construct: also called mCD33-Fc
T1 sequence: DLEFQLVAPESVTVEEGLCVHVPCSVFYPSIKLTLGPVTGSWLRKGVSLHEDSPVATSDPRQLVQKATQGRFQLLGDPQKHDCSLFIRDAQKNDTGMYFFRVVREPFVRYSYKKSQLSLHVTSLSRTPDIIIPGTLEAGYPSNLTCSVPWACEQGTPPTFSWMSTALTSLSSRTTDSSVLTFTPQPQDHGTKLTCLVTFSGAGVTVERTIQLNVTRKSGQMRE


Assays:
[1] = molecular target: T2, human CD33 Fc fusion protein (human, UniProt P20138 18-259); experiment: ForteBio BLI or MSD-SET, IgG, avid;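 also: Anti-CD33 IgG affinity by BLI, IgG captured on AHQ sensors with antigen in solution and a one-to-one kinetic fit, or by MSD solution equilibrium titration with quadratic fit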
T2 construct: also called hCD33-Fc; human CD33/Fc chimera (R&D Systems)

[2] = molecular target: T3, human CD33 (human, UniProt P20138 18-364); experiment: flow cytometry, human primary T cells;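 also: binding of anti-CD33 antibodies at 10 ug/ml to human primary T cells, 1 h on ice, detected with PE-labelled secondary antibody, read as flow cytometry MFI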
T3 construct: CD33 on human primary dendritic cells, macrophages, monocytes and T cells and on CHO cells expressing recombinant human CD33; also called Siglec-3; hCD33

[3] = molecular target: T4, human monomeric His tagged CD33 protein (human, UniProt P20138 18-259); experiment: ForteBio BLI or MSD-SET, IgG, monomeric antigen;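 also: BLI: antibodies captured on AHQ sensors, 100 nM antigen association 5 min, dissociation 5 min, 1:1 fit. MSD-SET: antigen fixed at 50 pM, antibody titrated, quadratic fit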
T4 construct: also called hCD33-His

[4] = molecular target: T3, human CD33; experiment: flow cytometry, human primary macrophages;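 also: binding of CD33 antibodies at 10 µg/ml to human primary macrophages, 1 h on ice, detected with PE-labelled secondary antibody by flow cytometry, reported as MFI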
[5] = molecular target: T2, human CD33 Fc fusion protein; experiment: RBC adhesion to plate-bound CD33-Fc; antibody 1.0 ug/ml;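 also: red blood cells adhering to plate-coated CD33-Fc after 1 h antibody pretreatment, then 1 h at room temperature, bound cells read as peroxidase activity after lysis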
[6] = molecular target: T3, human CD33; experiment: flow cytometry, human primary monocytes; design: reference not given here;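 also: binding of anti-CD33 antibodies at 10 ug/ml to human primary monocytes, 1 h on ice, detected by PE-labelled secondary antibody, flow cytometry readout as mean fluorescence intensity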
[7] = molecular target: T1, mouse CD33 Fc fusion protein; experiment: ForteBio BLI or MSD-SET
[8] = molecular target: T2, human CD33 Fc fusion protein; experiment: RBC adhesion to plate-bound CD33-Fc; antibody 0.5 ug/ml;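 also: Plate-coated CD33-Fc preincubated 1 h with antibody, then red blood cells added for 1 h at room temperature, adherent cells lysed and quantified via peroxidase activity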
[9] = molecular target: T3, human CD33; experiment: flow cytometry, human primary dendritic cells;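 also: binding of anti-CD33 antibodies (10 ug/ml, 1 h on ice) to human primary dendritic cells, detected with a PE-labelled secondary antibody, reported as flow cytometry MFI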
[10] = molecular target: T3, human CD33; experiment: cell-based or functional assay

T2 sequence (P20138 18-259 limits assumed): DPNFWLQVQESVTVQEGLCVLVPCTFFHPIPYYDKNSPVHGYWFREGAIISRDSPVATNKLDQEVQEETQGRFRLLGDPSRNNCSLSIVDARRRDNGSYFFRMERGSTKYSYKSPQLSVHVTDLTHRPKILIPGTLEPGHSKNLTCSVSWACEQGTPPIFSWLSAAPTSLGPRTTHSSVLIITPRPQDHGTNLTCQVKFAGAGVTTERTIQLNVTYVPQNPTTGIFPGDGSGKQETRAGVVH
T4 sequence (P20138 18-259 limits assumed): as above
T3 sequence (P20138 18-364): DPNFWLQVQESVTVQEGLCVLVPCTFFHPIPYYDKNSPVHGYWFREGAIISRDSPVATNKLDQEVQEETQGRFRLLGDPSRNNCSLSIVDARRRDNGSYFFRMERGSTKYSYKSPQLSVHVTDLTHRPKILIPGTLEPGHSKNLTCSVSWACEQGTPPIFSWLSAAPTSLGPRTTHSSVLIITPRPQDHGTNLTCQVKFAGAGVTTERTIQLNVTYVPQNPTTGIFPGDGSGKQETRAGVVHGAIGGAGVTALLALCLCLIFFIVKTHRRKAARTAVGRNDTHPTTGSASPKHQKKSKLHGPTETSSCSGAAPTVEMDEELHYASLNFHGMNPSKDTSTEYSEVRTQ

Row | Binder | Kd [1] [nM] | T cell MFI [2] | Kd [3] [nM] | Macrophage MFI [4] | Percent RBC Binding to CD33 [5] [%] | Monocyte MFI [6] | binding result [7] | Percent RBC Binding to CD33 [8] [%] | DC MFI [9] | Percent CD33 Surface Expression, DC % CD33 [10] [%] | Percent CD33 Surface Expression, Macrophage % CD33 [10] [%] | Percent CD33 Surface Expression, Monocyte % CD33 [10] [%]
1 | C-38 (antibody, V domains shown, human IgG1) VH: QLQLQESGPGLVKPSETLSLTCTVSGGSISSSSYYWGWIRQPPGKGLEWIGSIYYSGSTYYNPSLKSRVTISVDTSKNQFSLKLSSVTAADTAVYYCAREATAAADHPGMDVWGQGTTVTVSS VL: DIQMTQSPSSLSASVGDRVTITCQASQDITNYLNWYQQKPGKAPKLLIYDASNLETGVPSRFSGSRSGTDFTFTISSLQPEDIATYYCQQYHDFPTFGGGTKVEIK | 1.28 | 267 | 5.25 | 904 | 10.3 | 166 | no binding (tested: 100 nM) | 15.6 | 1740 | 17.9 | 49.1 | 27.6
2 | C-1 (antibody, V domains shown, full-length human IgG1) VH: not shown VL: EIVLTQSPATLSLSPGERATLSCRASQSVSSYLAWYQQKPGQAPRLLIYDASNRATGIPARFSGSGSGTDFTLTISSLEPEDFAVYYCQQYYFWPLTFGGGTKVEIK | 2.53 | 461 | 9.69 | 924 | 91.5 | 177 | no binding (tested: 100 nM) | 93.2 | 1440 | 80.9 | 94.4 | 100
3 | C-63 (antibody, V domains shown, human IgG1) VH: QVQLVQSGAEVKKPGSSVKVSCKASGGTFSSYAISWVRQAPGQGLEWMGSIIPIFGTANYAQKFQGRVTITADESTSTAYMELSSLRSEDTAVYYCARDLGGQYYGSHHYWGQGTLVTVSS VL: EIVLTQSPATLSVSPGERATLSCRASQSVGSNLAWYQQKPGQAPRLLIYGASTRATGIPARFSGSGSGTEFTLTISSLQSEDFAVYYCQQYNAWPLTFGGGTKVEIK | 4.01 | 28.8 |  | 872 | 5.66 | 117 | no binding (tested: 100 nM) | 17.1 | 1200 | 56.8 |  | 75.6
4 | C-62 (antibody, V domains shown, human IgG1) VH: not shown VL: EIVMTQSPATLSVSPGERATLSCRASQSVSSNLAWYQQKPGQAPRLLIYGASTRATGIPARFSGSGSGTEFTLTISSLQSEDFAVYYCQQFSNWPLTFGGGTKVEIK | 4.07 | 96.4 | 23.6 | 520 | 84 | 197 | no binding (tested: 100 nM) | 95.7 | 1660 | 78.4 |  | 87.4
5 | C-37 (antibody, V domains shown, human IgG1) VH: QLQLQESGPGLVKPSETLSLTCTVSGGSISSSSYYWGWIRQPPGKGLEWIGSISYSGSTYYNPSLKSRVTISVDTSKNQFSLKLSSVTAADTAVYYCAREHRAADAGSNVWGQGTMVTVSS VL: not shown | 0.409 | 213 | 2.72 | 952 | 5.6 | 203 | no binding (tested: 100 nM) | 11 | 1840 | 19 | 55.3 | 32.2
6 | C-67 (antibody, V domains shown, human IgG1) VH: QLQLQESGPGLVKPSETLSLTCTVSGGSISSSSYYWGWIRQPPGKGLEWIGSIYYSGSTYYNPSLKSRVTISVDTSKNQFSLKLSSVTAADTAVYYCAREVSGTRHGMDVWGQGTTVTVSS VL: not shown | 1.19 | 209 | 5.33 | 831 | 10.7 | 151 | no binding (tested: 100 nM) | 22.9 | 1420 | 17 | 51 | 23.8
7 | C-40 (antibody, V domains shown, human IgG1) VH: EVQLVESGGGLVQPGGSLRLSCAASGFTFSSYWMSWVRQAPGKGLEWVANIKQDGSEKYYVDSVKGRFTISRDNAKNSLYLQMNSLRAEDTAVYYCAREGGYVGHGMDVWGQGTTVTVSS VL: not shown | 1.86 | 210 | 10.6 | 663 | 12.1 | 76 | no binding (tested: 100 nM) | 19.7 | 1470 | 17.8 | 35.2 | 24.2
8 | C-39 (antibody, V domains shown, human IgG1) VH: QLQLQESGPGLVKPSETLSLTCTVSGGSISSSSYYWGWIRQPPGKGLEWIGSIYYSGSTYYNPSLKSRVTISVDTSKNQFSLKLSSVTAADTAVYYCAREGVRGMDVWGQGTTVTVSS VL: EIVLTQSPGTLSLSPGERATLSCRASQSVSSSYLAWYQQKPGQAPRLLIYGASSRATGIPDRFSGSGSGTDFTLTISRLEPEDFAVYYCQQFAFLPPTFGGGTKVEIK | 2.06 | 1210 | 9.97 | 802 | 5.11 | 181 | no binding (tested: 100 nM) | 12.5 | 2000 | 22.8 | 46.5 | 27.2
